T1: YbbP (E. coli, UniProt P77504 1-804)
T1 sequence: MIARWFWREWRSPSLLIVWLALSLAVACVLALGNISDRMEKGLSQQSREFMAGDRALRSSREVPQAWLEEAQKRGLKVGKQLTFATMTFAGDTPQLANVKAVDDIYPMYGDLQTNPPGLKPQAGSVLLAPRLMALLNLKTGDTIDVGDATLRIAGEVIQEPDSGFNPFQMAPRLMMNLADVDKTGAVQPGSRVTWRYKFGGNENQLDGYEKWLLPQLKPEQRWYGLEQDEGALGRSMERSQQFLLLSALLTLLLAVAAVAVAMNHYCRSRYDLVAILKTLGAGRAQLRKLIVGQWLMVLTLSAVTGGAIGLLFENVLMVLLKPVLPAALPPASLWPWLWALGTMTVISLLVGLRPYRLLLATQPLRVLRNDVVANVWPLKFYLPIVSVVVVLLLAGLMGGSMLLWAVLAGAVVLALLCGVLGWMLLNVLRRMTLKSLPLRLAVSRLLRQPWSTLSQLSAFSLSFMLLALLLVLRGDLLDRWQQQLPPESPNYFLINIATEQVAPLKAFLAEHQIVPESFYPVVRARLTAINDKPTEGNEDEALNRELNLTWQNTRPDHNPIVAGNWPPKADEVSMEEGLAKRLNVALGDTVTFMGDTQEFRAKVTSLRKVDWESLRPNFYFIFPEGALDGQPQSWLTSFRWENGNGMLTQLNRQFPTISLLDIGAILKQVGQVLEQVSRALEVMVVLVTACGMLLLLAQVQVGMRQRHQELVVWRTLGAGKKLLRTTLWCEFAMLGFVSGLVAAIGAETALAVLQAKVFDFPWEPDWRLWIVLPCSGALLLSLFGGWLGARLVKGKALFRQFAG


Molecular target: T1, YbbP
Test: cryo-EM structure

Binder | stoichiometry N
TesA Ser36Ala (enzyme, E. coli, UniProt P0ADA1 27-208, looked up) ADTLLILGDALSAGYRMSASAAWPALLNDKWQSKTSVVNASISGDTSQQGLARLPALLKQHQPRWVLVELGGNDGLRGFQPQQTEQTLRQILQDVKAANAEPLLMQIRLPANYGRRYNEAFSAIYPKLAKEFDVPLLPFFMEEVYLKPQWMQDDGIHPNRDAQPFIADWMAKQLQPLVNHDS | 1
YbbA (natural protein, E. coli) MPAENIVEVHHLKKSVGQGEHELSILTGVELVVKRGETIALVGESGSGKSTLLAILAGLDDGSSGEVSLVGQPLHNMDEEARAKLRAKHVGFVFQSFMLIPTLNALENVELPALLRGESSAESRNGAKALLEQLGLGKRLDHLPAQLSGGEQQRVALARAFNGRPDVLFADEPTGNLDRQTGDKIADLLFSLNREHGTTLIMVTHDLQLAARCDRCLRLVNGQLQEEA | 2

From publication doi:10.1101/2025.05.16.654284 (bioRxiv, 2025)
